Laboratory results reported in patent publication US20170306037A1 (Novartis, published 2017).

T1: DR3 (human, UniProt Q93038)
T1 sequence (receptor, looked up): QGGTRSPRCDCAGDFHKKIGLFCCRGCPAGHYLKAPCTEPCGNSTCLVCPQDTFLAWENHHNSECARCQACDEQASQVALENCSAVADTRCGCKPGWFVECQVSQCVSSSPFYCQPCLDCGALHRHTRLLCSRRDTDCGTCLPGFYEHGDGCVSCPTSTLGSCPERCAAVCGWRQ

T2: OX40 (human, UniProt P43489)
T2 sequence (receptor, looked up): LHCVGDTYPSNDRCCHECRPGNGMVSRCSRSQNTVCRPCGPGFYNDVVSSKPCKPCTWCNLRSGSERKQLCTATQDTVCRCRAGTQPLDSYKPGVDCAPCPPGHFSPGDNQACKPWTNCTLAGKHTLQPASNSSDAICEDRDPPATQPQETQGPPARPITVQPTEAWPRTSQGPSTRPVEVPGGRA

T3: CD27 (human, UniProt P26842)
T3 sequence (receptor, looked up): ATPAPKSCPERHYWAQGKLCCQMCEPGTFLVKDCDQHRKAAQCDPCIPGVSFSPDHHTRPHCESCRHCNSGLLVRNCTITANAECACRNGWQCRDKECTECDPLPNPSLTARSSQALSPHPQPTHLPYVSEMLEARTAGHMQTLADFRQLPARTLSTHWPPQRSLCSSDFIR

T4: OPG (human, UniProt O00300)
T4 sequence (receptor, looked up): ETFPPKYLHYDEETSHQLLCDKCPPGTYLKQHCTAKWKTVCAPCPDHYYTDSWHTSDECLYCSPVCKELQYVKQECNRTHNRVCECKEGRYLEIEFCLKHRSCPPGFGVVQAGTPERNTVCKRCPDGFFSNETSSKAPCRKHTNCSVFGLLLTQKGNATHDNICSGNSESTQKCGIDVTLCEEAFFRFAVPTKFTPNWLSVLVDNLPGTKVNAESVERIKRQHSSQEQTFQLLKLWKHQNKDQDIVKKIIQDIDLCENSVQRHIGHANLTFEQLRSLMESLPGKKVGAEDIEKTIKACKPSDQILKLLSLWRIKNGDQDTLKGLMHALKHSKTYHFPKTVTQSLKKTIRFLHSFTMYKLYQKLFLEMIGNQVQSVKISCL

T5: CD30 (human, UniProt P28908)
T5 sequence (receptor, looked up): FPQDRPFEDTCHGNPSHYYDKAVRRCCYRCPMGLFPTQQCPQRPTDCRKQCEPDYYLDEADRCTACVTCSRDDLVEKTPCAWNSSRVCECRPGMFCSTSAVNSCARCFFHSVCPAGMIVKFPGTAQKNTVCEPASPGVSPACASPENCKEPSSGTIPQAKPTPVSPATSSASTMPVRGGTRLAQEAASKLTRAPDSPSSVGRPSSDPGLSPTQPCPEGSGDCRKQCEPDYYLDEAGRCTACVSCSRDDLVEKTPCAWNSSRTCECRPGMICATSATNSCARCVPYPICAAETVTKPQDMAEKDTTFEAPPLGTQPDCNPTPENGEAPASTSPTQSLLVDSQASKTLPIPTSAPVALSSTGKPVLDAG

T6: HVEM (human, UniProt Q92956)
T6 sequence (receptor, looked up): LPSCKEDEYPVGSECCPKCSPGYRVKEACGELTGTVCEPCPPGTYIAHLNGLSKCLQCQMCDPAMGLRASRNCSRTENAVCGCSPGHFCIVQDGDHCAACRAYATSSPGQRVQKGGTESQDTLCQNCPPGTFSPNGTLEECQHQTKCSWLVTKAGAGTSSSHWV

T7: BAFFR (human, UniProt Q96RJ3)
T7 sequence (receptor, looked up): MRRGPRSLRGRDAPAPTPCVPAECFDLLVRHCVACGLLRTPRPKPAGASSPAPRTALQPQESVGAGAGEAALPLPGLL

T8: TACI (human, UniProt O14836)
T8 sequence (receptor, looked up): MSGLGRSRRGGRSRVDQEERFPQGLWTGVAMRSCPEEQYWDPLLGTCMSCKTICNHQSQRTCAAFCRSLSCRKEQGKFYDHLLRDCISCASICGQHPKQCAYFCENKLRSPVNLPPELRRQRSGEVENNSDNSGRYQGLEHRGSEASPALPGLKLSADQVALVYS

B1: MAB4 (IgG1 kappa) (antibody, V domains shown)
VH: EVQLVESGGGLVQSGGSLRLSCAASGFSLSSYGVDWVRQAPGKGLEWVGVIWGGGGTYYASSLMGRFTISRDNSKNTLYLQMNSLRAEDTAVYYCAKHAYGHDGGFAMDYWGQGTLVTVSS
VL: EIVMTQSPATLSVSPGERATLSCRASESVSSNVAWYQQRPGQAPRLLIYGASNRATGIPARFSGSGSGTDFTLTISRLEPEDFAVYYCGQSYSYPFTFGQGTKLEIKR
B2: MAB5 (IgG1 kappa) (antibody, V domains shown)
VH: EVQLVESGGGLVQSGGSLRLSCAASGFSLSSYGVDWVRQAPGKGLEWLGVIWGGGGTYYTSSLMGRFTISRDNSKNTLYLQMNSLRAEDTAVYYCAKHAYGHDGGFAMDYWGQGTLVTVSS
VL: EIVMTQSPATLSVSPGERATLSCRASESVSSNVAWYQQRPGQAPRLLIYGASNRATGIPARFSGSGSGTDFTLTISRLEPEDFAVYYCGQSYSYPFTFGQGTKLEIKR
notes: also called MABS (misprint of MAB5)

Tests used:
Assay in all cases: specificity ELISA, bacterial lysate on HisGrab nickel plate
DR3 = molecular target: T1, DR3
Experimental: (§1) For the specificity ELISA, a crude cell lysate was made from bacteria expressing members of the TNFRSF family. To prevent nonspecific binding to the plate 50 μL of 5% BSA was added per mL of bacterial lysate. […] The plate was then rinsed three times with PBST, then MAB was diluted to 0.5 μg/mL in 10% FBS in PBS and 100 μL was added to each well. The plate was incubated for 1 hour at room temperature and then rinsed three times with PBST. Anti-human kappa antibody (Sigma #A7164) conjugated to HRP was diluted 1:5000 in 1:1 PBST: 10% FBS in PBS and 100 μL added to each well. The plate was incubated for 1 hour at room temperature, and then washed three times with PBST. 100 μL of SureBlue TMB substrate was added to each well and the plate was incubated for about 10 min at room temperature before stopping the reaction with 100 μL /well of 2N H₂SO₄.

OX40 = molecular target: T2, OX40
Experimental: as §1

CD137 = molecular target: T9, CD137 (human, UniProt Q07011)
T9 construct: also called TNFRSF9
Experimental: as §1

CD27 = molecular target: T3, CD27
Experimental: as §1

OPG = molecular target: T4, OPG
Experimental: as §1

DR5 = DR5 (human, UniProt O14763)
Experimental: as §1

CD30 = molecular target: T5, CD30
Experimental: as §1

HVEM = molecular target: T6, HVEM
Experimental: as §1

BAFFR = molecular target: T7, BAFFR
Experimental: as §1

TNFR3 = TNFR3 (human, UniProt P36941)
TNFR3, sequence (P36941 31-227 limits assumed): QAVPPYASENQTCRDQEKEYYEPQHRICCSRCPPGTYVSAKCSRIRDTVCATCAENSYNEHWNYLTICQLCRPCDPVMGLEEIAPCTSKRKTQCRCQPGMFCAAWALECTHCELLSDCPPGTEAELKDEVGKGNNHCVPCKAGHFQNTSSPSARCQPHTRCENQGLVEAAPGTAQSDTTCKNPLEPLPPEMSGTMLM
Experimental: as §1

TACI = molecular target: T8, TACI
Experimental: as §1

Binder | binding result (DR3) | binding result (OX40) | binding result (CD137) | binding result (CD27) | binding result (OPG) | binding result (DR5) | binding result (CD30) | binding result (HVEM) | binding result (BAFFR) | binding result (TNFR3) | binding result (TACI)
B1 | no binding (tested: not on the sheet; paragraph 335: 0.5 µg/mL) | no binding (tested: not on the sheet; paragraph 335: 0.5 µg/mL) | no binding (tested: not on the sheet; paragraph 335: 0.5 µg/mL) | no binding (tested: not on the sheet; paragraph 335: 0.5 µg/mL) | no binding (tested: not on the sheet; paragraph 335: 0.5 µg/mL) | no binding (tested: not on the sheet; paragraph 335: 0.5 µg/mL) | no binding (tested: not on the sheet; paragraph 335: 0.5 µg/mL) | no binding (tested: not on the sheet; paragraph 335: 0.5 µg/mL) | no binding (tested: not on the sheet; paragraph 335: 0.5 µg/mL) | no binding (tested: not on the sheet; paragraph 335: 0.5 µg/mL) | no binding (tested: not on the sheet; paragraph 335: 0.5 µg/mL)
B2 | no binding (tested: not on the sheet; paragraph 335: 0.5 µg/mL) | no binding (tested: not on the sheet; paragraph 335: 0.5 µg/mL) | no binding (tested: not on the sheet; paragraph 335: 0.5 µg/mL) | no binding (tested: not on the sheet; paragraph 335: 0.5 µg/mL) | no binding (tested: not on the sheet; paragraph 335: 0.5 µg/mL) | no binding (tested: not on the sheet; paragraph 335: 0.5 µg/mL) | no binding (tested: not on the sheet; paragraph 335: 0.5 µg/mL) | no binding (tested: not on the sheet; paragraph 335: 0.5 µg/mL) | no binding (tested: not on the sheet; paragraph 335: 0.5 µg/mL) | no binding (tested: not on the sheet; paragraph 335: 0.5 µg/mL) | no binding (tested: not on the sheet; paragraph 335: 0.5 µg/mL)
